Test results as given in article PMC7082573, “Aspergillus fumigatus Mitochondrial Acetyl Coenzyme A Acetyltransferase as an Antifungal Target” (Applied and Environmental Microbiology, 2020).

B1: Aspergillus fumigatus acetyl-CoA acetyltransferase AfERG10A (residues 36 to 433) (enzyme, UniProt B0XMC1 36-433, looked up)
chain: EIQEAYILSGARTPTAKFNGSFVSVSAPELGAVAIKSAVSKSGVPVEKITDVYMGNVLQGAVGQAPARQASMFAGLSPTVESMTVNKVCASGLKAVALAAQNIQLGLAEAQVAGGMENMSRVPYYLPRSTQLPPFGEIKLQDGLIQDGLWDVYNQFHMGICAEKTAKKYEISREEQDQYAIQSYQRAQAAWKENKFAEEIAPVTVKGKKGETVVERDEGYENLRIDKMATLKPAFLRDGTGTVTAGNASTMNDGASALVLGSKAIAREFAQGNRALARIVSTADAAIDPVDFPVAPAKAVPIALERAGITKDQVAVWEFNEAFAAVIKANEKILGLQNARVNPLGGAISLGHALGSSGSRILVTLLHQLQPGEYGVAAICNGGGAATAMVVQKLDRVD
notes: AfERG10A (AFUB_000550), mitochondrial acetyl-CoA acetyltransferase of Aspergillus fumigatus, whole protein 433 amino acids; Cloned from cDNA into pGEX-6P1 with primers P13/P14; After PreScission cleavage a few vector residues probably remain at the N-terminus; Primer P13 carries a Lys codon (AAA) before GAG (Glu), so the construct may begin one residue earlier or have an added Lys; also called …

Legend:
AfERG10A = biological target: T1, AfERG10A (Aspergillus fumigatus, UniProt B0XMC1); assay: X-ray crystal structure of the complex, […] Å; conditions: crystals from 0.1 M HEPES pH 7.0, 2 M ammonium sulfate with CoA; CoA binding site
T1 construct: gene erg10A; pGEX-6P1 GST tag cleaved by PreScission; E. coli BL21(DE3)/pLysS; homotetramer
T1 sequence (B0XMC1 36-433): B1 chain

[1] = substrate: CC(=O)CC(=O)SCCNC(=O)CCNC(=O)[C@H](O)C(C)(C)COP(=O)(O)OP(=O)(O)OC[C@H]1O[C@@H](n2cnc3c(N)ncnc32)[C@H](O)[C@@H]1OP(=O)(O)O; assay: Mg2+ method, degradative (thiolysis) reaction, steady-state kinetics; format: biochemical, Aspergillus fumigatus; conditions: CoA co-substrate (60 μM in the mixture as printed), 50 mM Tris-HCl pH 8.1, 20 mM MgCl2, 40 mM KCl, 30°C
Excerpt: (§1) Mg2+ method, degradative (thiolysis) reaction, steady-state kinetics on AfERG10A

[2] = substrate: CC(C)(COP(=O)(O)OP(=O)(O)OC[C@H]1O[C@@H](n2cnc3c(N)ncnc32)[C@H](O)[C@@H]1OP(=O)(O)O)[C@@H](O)C(=O)NCCC(=O)NCCS; assay: as above; format: biochemical, Aspergillus fumigatus; conditions: acetoacetyl-CoA co-substrate (10 μM in the mixture as printed), 50 mM Tris-HCl pH 8.1, 20 mM MgCl2, 40 mM KCl, 30°C
Excerpt: as §1

purified protein = substrate: CC(=O)SCCNC(=O)CCNC(=O)[C@H](O)C(C)(C)COP(=O)(O)OP(=O)(O)OC[C@H]1O[C@@H](n2cnc3c(N)ncnc32)[C@H](O)[C@@H]1OP(=O)(O)O; assay: purified protein; format: biochemical, Aspergillus fumigatus; conditions: 50 mM Tris-HCl pH 7.4, 0.2 mM NADH, 0.5 mM DTT, 30°C
[3] = biological target: the molecule itself; assay: crystal structure; apo and CoA-complexed AfERG10A; sitting drop at room temperature, 0.1 M HEPES (pH 7.0), 2 M ammonium sulfate, in the absence or presence of CoA; refined to 2.4 Å; four molecules in one asymmetric unit

| Molecule | X-ray crystal structure of the complex, 2.4 Å (AfERG10A) | Km [1] | kcat [1] | Km [2] | kcat [2] | Km (purified protein) | kcat (purified protein) | stoichiometry N [3] |
| --- | --- | --- | --- | --- | --- | --- | --- | --- |
| CC(C)(COP(=O)(O)OP(=O)(O)OC[C@H]1O[C@@H](n2cnc3c(N)ncnc32)[C@H](O)[C@@H]1OP(=O)(O)O)[C@@H](O)C(=O)NCCC(=O)NCCS [CoA] | structures of apo- and CoA-complexed AfERG10A were determined | – | – | – | – | – | – | – |
| B1 | – | 43 ± 9 µM | 3 ± 0.2 s⁻¹ | 26 ± 5 µM | 5 ± 0.2 s⁻¹ | 232 ± 49 µM | 7 ± 0.4 s⁻¹ | 4 |
